Reference: publication PMC4012986, “The Dimerization Domain in DapE Enzymes Is required for Catalysis” (PLoS ONE, 2014)

B1: N-succinyl-L,L-diaminopimelic acid desuccinylase (DapE) from Haemophilus influenzae, wild type, full length (enzyme)
chain: MKEKVVSLAQDLIRRPSISPNDEGCQQIIAERLEKLGFQIEWMPFNDTLNLWAKHGTSEPVIAFAGHTDVVPTGDENQWSSPPFSAEIIDGMLYGRGAADMKGSLAAMIVAAEEYVKANPNHKGTIALLITSDEEATAKDGTIHVVETLMARDEKITYCMVGEPSSAKNLGDVVKNGRRGSITGNLYIQGIQGHVAYPHLAENPIHKAALFLQELTTYQWDKGNEFFPPTSLQIANIHAGTGSNNVIPAELYIQFNLRYCTEVTDEIIKQKVAEMLEKHNLKYRIEWNLSGKPFLTKPGKLLDSITSAIEETIGITPKAETGGGTSDGRFIALMGAEVVEFGPLNSTIHKVNECVSVEDLGKCGEIYHKMLVNLLDS
notes: also called HiDapE; WT-HiDapE; source: E. coli BL21(DE3) derivative with pMAGIC; purification of the wild type not described

Experiments:
[1] = test system: N[C@@H](CCC[C@H](NC(=O)CCC(=O)O)C(=O)O)C(=O)O; test: purified protein; conditions: 50 mM phosphate pH 7.5, 25 °C, two equivalents Zn(II)
[2] = substrate: N[C@@H](CCC[C@H](NC(=O)CCC(=O)O)C(=O)O)C(=O)O; test: purified protein; conditions: 50 mM phosphate pH 7.5, 25 °C, two equivalents Zn(II); remark: listed apart in the source
[3] = biological target: the molecule itself; test: dynamic light scattering; DynaPro-801, 21°C; 2.0 mg/ml in crystallization buffer (250 mM NaCl, 20 mM HEPES pH 8.0, 1 mM TCEP)

Row | Molecule | Km [1] [µM] | kcat [1] [s⁻¹] | Km [2] [µM] | kcat [2] [s⁻¹] | binding result [3]
1 | WT-VcDapE (Vibrio cholerae O1 biovar El Tor str. N16961) | 1200 ± 200 | 80 ± 10 | – | – | –
2 | B1 | – | – | 800 ± 100 | 114 ± 10 | binds
